System: T1, CcpA (Lactococcus lactis N8), ORF:ea67f8fe
T1 sequence: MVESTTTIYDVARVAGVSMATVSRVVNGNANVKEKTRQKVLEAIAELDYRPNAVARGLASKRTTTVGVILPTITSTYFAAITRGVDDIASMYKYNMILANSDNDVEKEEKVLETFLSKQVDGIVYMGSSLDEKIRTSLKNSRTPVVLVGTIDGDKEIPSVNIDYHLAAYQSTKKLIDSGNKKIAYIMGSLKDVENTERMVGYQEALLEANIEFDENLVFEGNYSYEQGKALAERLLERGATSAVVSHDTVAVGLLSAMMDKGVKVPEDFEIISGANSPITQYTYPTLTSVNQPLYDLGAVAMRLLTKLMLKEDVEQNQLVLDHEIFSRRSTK
Assay: MST
Conditions: MST: Cy5-DNA 375 nM stock (10 uL per tube), CcpA from 15 uM in 16 two-fold dilutions; assay buffer, salt, pH and temperature not stated (protein purified in …)

Row | Sequence | binding | Kd [nM]
1 | AGCCAGTGGCGATAAGTACGATAAAATATTTAAAAGTCTATATATACCAAGGAAGAAAACTCTTTAAATTTTTGTAAATTATTAGAAATAATGATAG (double strand) [N8-2-cre] | no binding | –
2 | AGCCAGTGGCGATAAGTACGATAAAATATTTAAAAGTCTATATATACCAAGGAAGAAAACGCTTTAAATTTTTGTAAATTATTAGAAATAATGATAG (double strand) [N8-1-cre] | – | 44

— article PMC11051896
